These results are taken from patent US20060223116A1 (published 2006).

The target in this test is T1, murine ITK (endogenous, mouse thymocytes and CD4 T cells) (mouse, UniProt Q03526 1-625).
T1 construct: Endogenous protein of BALB/c mouse cells; also called endogenous ITK
T1 sequence: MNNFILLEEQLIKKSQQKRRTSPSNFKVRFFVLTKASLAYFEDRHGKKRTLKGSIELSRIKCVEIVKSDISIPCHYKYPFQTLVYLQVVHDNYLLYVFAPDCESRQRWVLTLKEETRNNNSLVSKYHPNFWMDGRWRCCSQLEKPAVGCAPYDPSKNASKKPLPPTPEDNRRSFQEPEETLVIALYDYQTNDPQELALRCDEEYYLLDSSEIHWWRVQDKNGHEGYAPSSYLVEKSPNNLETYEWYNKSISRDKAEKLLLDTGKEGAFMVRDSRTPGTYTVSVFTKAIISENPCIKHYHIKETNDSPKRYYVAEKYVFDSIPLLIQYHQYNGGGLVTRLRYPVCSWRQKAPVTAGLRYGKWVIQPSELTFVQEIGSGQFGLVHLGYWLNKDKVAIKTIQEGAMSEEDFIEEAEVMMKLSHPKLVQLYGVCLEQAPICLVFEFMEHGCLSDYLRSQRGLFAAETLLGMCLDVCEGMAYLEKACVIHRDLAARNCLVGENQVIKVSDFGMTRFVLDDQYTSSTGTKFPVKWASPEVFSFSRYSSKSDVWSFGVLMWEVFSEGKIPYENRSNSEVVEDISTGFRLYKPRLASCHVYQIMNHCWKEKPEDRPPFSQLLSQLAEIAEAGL
As to the kind of experiment: IP of T-bet (4B10) from mouse thymocyte nuclear extracts, anti-ITK (2F12) blot. On the procedure: Most important, it was determined whether ITK interacted with T-bet under physiological conditions, by determining endogenous association in primary thymocytes. Single cell suspensions were obtained from thymi of BALB/c wt, T-bet^{-/-} and ITK−/− mice and nuclear extracts were prepared with NE-PER (Pierce, Rockford) according to the manufacturer's instructions. Two mg of nuclear extracts were incubated with anti-T-bet mAb, 4B10, in 150 mM NaCl. Immune complexes were resolved and probed with anti-ITK mAb (2F12), and sequentially with 4B10 after stripping. ITK expression was assayed in 30 μg of nuclear extracts. Initial attempts to perform coimmunoprecipitation experiments in naïve Thp cells 24 and 48 hours after TCR stimulation failed, likely secondary to both the low levels of endogenous T-bet expressed at this early time point and the competing processes of phosphorylation and dephosphorylation occurring in activated cells.

B1: murine T-bet (endogenous, mouse thymocytes and Thp cells) (other, UniProt Q9JKD8 1-530, looked up)
chain: MGIVEPGCGDMLTGTEPMPSDEGRGPGADQQHRFFYPEPGAQDPTDRRAGSSLGTPYSGGALVPAAPGRFLGSFAYPPRAQVAGFPGPGEFFPPPAGAEGYPPVDGYPAPDPRAGLYPGPREDYALPAGLEVSGKLRVALSNHLLWSKFNQHQTEMIITKQGRRMFPFLSFTVAGLEPTSHYRMFVDVVLVDQHHWRYQSGKWVQCGKAEGSMPGNRLYVHPDSPNTGAHWMRQEVSFGKLKLTNNKGASNNVTQMIVLQSLHKYQPRLHIVEVNDGEPEAACSASNTHVFTFQETQFIAVTAYQNAEITQLKIDNNPFAKGFRENFESMYASVDTSVPSPPGPNCQLLGGDPFSPLLSNQYPVPSRFYPDLPGQPKDMISQPYWLGTPREHSYEAEFRAVSMKPTLLPSAPGPTVPYYRGQDVLAPGAGWPVAPQYPPKMSPAGWFRPMRTLPMDPGLGSSEEQGSSPSLWPEVTSLQPEPSDSGLGEGDTKRRRISPYPSSGDSSSPAGAPSPFDKETEGQFYNYFPN
notes: mature; Endogenous protein in nuclear extracts; also called endogenous T-bet
In the case of B1, the binding result is listed as “binds”.
